Measured values published in the supplement of paper PMC10567573.

B1: TFE3 (parent)
chain: FPSDHLGDLGDPFHLGLEDILMEE
B2: EIF5 (parent)
chain: KQTIGNSCKACGYRGMLDTHHKLC

Variants of: B1
Assay: protein stability index of a GFP-peptide fusion (GPS, HEK-293T) (PSI 1-6); higher = more stable
Settings: c terminus: a fixed tail appended
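Also: lentivirally expressed fusions sorted by FACS into six bins by GFP to DsRed ratio, PSI derived from sequencing read proportions per bin multiplied by bin number.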

Protein stability index: each site, then its substitutions
H5: R 3.52, D 4.42, N 3.87, F 3.28, E 4.15, P 3.68, Q 3.85, L 3.3, Y 3.18, S 3.81, V 3.87, G 3.36, C 3.73, I 3.08, W 1.35, T 3.88, M 3.33, K 2.83, A 4.06
P2: C 2.57, D 3.95, N 4.24, R 3.52, H 1.84, L 3.37, K 3.97, F 2.83, Y 3, T 2.74, S 3.96, M 3.25, Q 2.63, V 1.5, A 2.62, I 2.12, G 3.62, E 4.51, W 2.04
L6: E 3.96, G 3.64, H 3.98, F 3.16, D 4.09, A 3.69, I 3.37, C 3.42
S3: G 2.97, F 2.29, Q 3.57, P 3.79, K 2.67, R 2.6, M 2.59, C 2.46, D 4.07, A 2.85, H 2.91, I 3.02, T 2.9, E 3.97, N 3.16, W 2.2, Y 2.45, V 2.56, L 3.04
D4: F 2.75, G 2.49, W 1.7, A 2.26, Q 3.03, K 1.87, C 2.33, R 2.04, V 2.59, H 1.91, Y 2.75, T 2.35, P 3.11, I 2.76, E 3.77, M 2.77, S 2.51, N 3.22, L 2.37
F1: A 5.42, Q 4.57, V 4.88, M 4.82, R 4.64, D 4.84, I 4.61, L 4.55, H 4.7, P 5.13, C 5.03, S 5.1, N 4.91, K 4.41, T 4.74, W 4.36, G 5.12, E 4.96, Y 3.3

Variants of: B2
Assay: as above
Settings: c terminus: a fixed tail appended

Protein stability index: each site, then its substitutions
K1: E 2.95, T 3.48, V 2.95, P 3.6, M 2.36, Q 3.14, G 3.35, W 3.05, F 2.55
R14: Q 3.35, K 3.89, M 2.97, D 3.41, G 3.29, V 3.15, L 2.96, I 3.33, E 3.1, F 3.14, S 3.51, C 4.75, T 3.52
K9: E 3.5, G 2.82, R 2.79, V 3.13, N 2.79, M 2.85, L 2.6
A10: I 3.86, S 3.44, E 4.16, C 3.09, R 3.27, G 2.71, Y 4.03, T 3.36, W 3.01, Q 3
G12: V 1.62, R 2.66, A 1.37, F 1.73, P 1.84, S 1.52, T 2.5, I 2.29, N 2.25, K 3.06, M 2.76, E 2.93
T19: G 4.05, K 3.44, W 1.87, N 3.81, S 3.1, E 3.62, C 3.45, D 4.48, Y 2.71, R 2.79
L23: A 3.89, D 4.67, C 4.27, K 3.36, V 4.26, Y 3.89, P 3.28
M16: L 3.51, H 4.16, E 4.14, R 3.29, G 3.91, V 3.27, C 3.75, N 3.63, Y 2.98, A 3.94, F 2.58
I4: R 3.31, E 3.92, D 3.95, L 3.73, V 3.57, Y 3.08, A 3.68, C 3.24, S 3.75, W 2.82, P 3.44
H20: C 2.75, E 3.24, D 3.64, G 2.56, K 2.61, W 2.48, S 3.17, I 2.12, M 1.23, P 2.47
C24: A 1.99, E 2.11, P 1.81, L 1.92, V 2.35, T 1.57, K 2.15, Y 1.7, H 1.9, W 2.21
C11: K 1.88, M 1.73, Y 2.4, V 2.88, Q 2.26, N 1.94, A 2.2, H 1.53, E 1.55
H21: L 2.77, Y 3.32, R 3, K 3.02, V 3.29, Q 2.51, S 2.9, N 3.25, P 3.17, E 3.21, W 2.45, M 2.89, T 3.17, F 2.35
K22: M 3.09, G 2.52, D 3.72, Y 2.73, V 2.77, H 3.37, F 2.46, W 2.17
N6: P 3.12, R 2.84, S 3.24, H 3.03, V 3.52, T 3.66, L 2.96, F 3.34, W 2.62, C 3.71, K 3.11, I 3.84, E 3.62
C8: N 2.78, E 2.68, H 1.91, D 2.48, W 1.95, Y 1.44, Q 1.91, K 2.28, L 3.05
S7: D 3.83, R 3.11, I 4.31, G 3.5, A 3.96, Q 4.08, N 3.25, W 2.64, H 4.11
D18: Q 2.29, C 3.19, K 2.46, R 2.65, I 2.24, P 2.71, E 3.35, L 2.38, H 3.07, W 1.99, G 2.81, S 3.22
G15: V 2.12, M 1.84, I 2.26, T 2.27, P 2.93, K 2.11, F 2.24, E 2.24, A 1.78
Y13: G 2.75, F 3.21, K 3.97, E 3.75, D 3.03, R 3.24
Q2: E 3.74, V 3, S 3.05, K 3.18, Y 2.19, P 3.5, H 3.6, G 3.22, D 2.84
G5: Y 2.81, E 4.09, Q 3.3, N 3.44, W 2.34, M 4.13, P 3.41, S 2.95
L17: V 2.6, R 3.44, I 3.33, D 4.68, W 2.31, K 3.44
T3: G 3.15, E 2.99, A 3.04, R 3.18, K 3.4, V 2.38, H 3.67, P 3.66, S 3.19
